Values quoted from earlier work as cited in paper PMC6963985.
pKd: −log10 of the molar value.

Biological target: CTLA-4 (Homo sapiens) (UniProt P16410)
Sequence of UniProt P16410 (P16410 36-161): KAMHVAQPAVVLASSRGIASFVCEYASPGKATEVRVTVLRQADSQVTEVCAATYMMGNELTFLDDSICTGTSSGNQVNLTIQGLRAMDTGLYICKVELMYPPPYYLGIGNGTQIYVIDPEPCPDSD

For Tremelimumab, the pKd is given as 8.23.
